Where two headings read alike, the source gives them in different places. Each block holds one binder with its values, some of them ahead of it.
Tests used:
[1] = molecular target: T1, mouse FcγRII extracellular domain with C-terminal His tag (mouse, UniProt P08101 30-210); experiment: SPR Biacore T200
T1 construct: Made on the basis of NCBI NP-034317.1; also called mFcγRII; mFcgRII
T1 sequence: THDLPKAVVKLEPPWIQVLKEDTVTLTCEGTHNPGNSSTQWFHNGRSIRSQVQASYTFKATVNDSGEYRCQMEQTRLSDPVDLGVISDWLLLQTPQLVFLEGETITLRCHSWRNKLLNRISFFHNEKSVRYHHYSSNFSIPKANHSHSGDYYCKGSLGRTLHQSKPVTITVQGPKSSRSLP

[2] = molecular target: T2, mouse FcγRIII extracellular domain with C-terminal His tag (mouse, UniProt P08508 31-215); experiment: SPR Biacore T200
T2 construct: Made on the basis of NCBI NP-034318.2; also called mFcγRIII; mFcgRIII
T2 chain: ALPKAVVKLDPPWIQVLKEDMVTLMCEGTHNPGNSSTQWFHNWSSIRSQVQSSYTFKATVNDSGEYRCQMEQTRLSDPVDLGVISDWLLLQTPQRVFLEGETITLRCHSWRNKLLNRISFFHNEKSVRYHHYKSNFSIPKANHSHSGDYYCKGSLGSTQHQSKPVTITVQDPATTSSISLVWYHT

[3] = molecular target: T1, mouse FcγRII extracellular domain with …; experiment: SPR Biacore T200; remark: listed apart in the source
[4] = molecular target: T2, mouse FcγRIII extracellular domain with …; experiment: SPR Biacore T200
[5] = molecular target: T1, mouse FcγRII extracellular domain with …; experiment: SPR Biacore T200; remark: listed apart in the source
Procedure: (§1) Each altered antibody was analyzed for its interaction with each Fcγ receptor prepared above using Biacore T100 (GE Healthcare Japan Corp.), Biacore T200 (GE Healthcare Japan Corp.), Biacore A100, or Biacore 4000. The running buffer used was HBS-EP+ (GE Healthcare Japan Corp.). The assay temperature was set to 25° C. The sensor chips used were chips prepared by immobilizing Protein L (ACTIGEN or BioVision) onto Series S Sensor Chip CM5 (GE Healthcare Japan Corp.) or Series S Sensor Chip CM4 (GE Healthcare Japan Corp.) by the amine coupling method.
(§2) In order to calculate the KD value of each altered antibody for FcγR, kinetic analysis was conducted according to the following method: first, the antibody of interest was captured onto any of these chips and allowed to interact with mFcγR diluted with a running buffer. For the obtained sensorgram, the assay results were globally fit into the 1:1 Langmuir binding model using Biacore Evaluation Software to calculate an association rate constant ka (L/mol/s) and a dissociation rate constant kd (1/s). From these values, the dissociation constant KD (mol/L) was calculated.

[6] = molecular target: T2, mouse FcγRIII extracellular domain with …; experiment: SPR Biacore T200
Procedure: as §1, §2

[7] = molecular target: T1, mouse FcγRII extracellular domain with …; experiment: SPR Biacore T200; KD mFcγRIII / KD mFcγRII

relative mFcγRII-binding activity (mIgG1 = 1) [3]: 46.3
relative mFcγRIII-binding activity (mIgG1 = 1) [4]: 0.6
Kd [5]: 4.53 nM
Kd [6]: 509 nM
B2: H237-MB513/MRAL-k0 (antibody, mouse IgG1, kappa)
heavy: QVQLQESGPGLVKPSETLSLTCAVSGHSISHDHAWSWVRQPPGEGLEWIGFISYSGITNYNPSLQGRVTISRDNSKNTLYLQMNSLRAEDTAVYYCARSLARTTAMDYWGEGTLVTVSSAKTTPPSVYPLAPGSAAQTNSMVTLGCLVKGYFPEPVTVTWNSGSLSSGVHTFPAVLQSDLYTLSSSVTVPSSTWPSETVTCNVAHPASSTKVDKKIVPRDCGCKPCICEPAEVEMVFIFPPKPKDVLTITLTPKVTCVVVDISKDDPEVQFSWFVDDVEVHTAQTQPREEQFNSTFRSVSELPIMHQDWLNGKEFKCRVNSAAFPAPIEKTISKTKGRPKAPQVYTIPPPKEQMAKDKVSLTCMITDFFPEDITVEWQWNGQPAENYKNTQPIMDTDGSYFVYSKLNVQKSNWEAGNTFTCSVLHEGLHNHHTEKSLSHSPGK
light: not shown
notes: copies: 2 + 2

relative mFcγRII-binding activity (mIgG1 = 1) [3]: 10
relative mFcγRIII-binding activity (mIgG1 = 1) [4]: 0.3
Kd [5]: 21 nM
Kd [6]: 837 nM
B3: H237-MB524/MRAL-k0 (antibody)
heavy: QVQLQESGPGLVKPSETLSLTCAVSGHSISHDHAWSWVRQPPGEGLEWIGFISYSGITNYNPSLQGRVTISRDNSKNTLYLQMNSLRAEDTAVYYCARSLARTTAMDYWGEGTLVTVSSAKTTPPSVYPLAPGSAAQTNSMVTLGCLVKGYFPEPVTVTWNSGSLSSGVHTFPAVLQSDLYTLSSSVTVPSSTWPSETVTCNVAHPASSTKVDKKIVPRDCGCKPCICEPNEVEWVFIFPPKPKDVLTITLTPKVTCVVVDISKDDPEVQFSWFVDDVEVHTAQTQPREEQFNSTFRSVSELPIMHQDWLNGKEFKCRVNSAAFPAPIEKTISKTKGRPKAPQVYTIPPPKEQMAKDKVSLTCMITDFFPEDITVEWQWNGQPAENYKNTQPIMDTDGSYFVYSKLNVQKSNWEAGNTFTCSVLHEGLHNHHTEKSLSHSPGK
light: not shown
notes: copies: 2 + 2

relative mFcγRII-binding activity (mIgG1 = 1) [3]: 165
relative mFcγRIII-binding activity (mIgG1 = 1) [4]: 1.7
Kd [5]: 1.27 nM
Kd [6]: 171 nM
B7: H237-MB515/MRAL-k0 (antibody, mouse IgG1, kappa)
heavy: QVQLQESGPGLVKPSETLSLTCAVSGHSISHDHAWSWVRQPPGEGLEWIGFISYSGITNYNPSLQGRVTISRDNSKNTLYLQMNSLRAEDTAVYYCARSLARTTAMDYWGEGTLVTVSSAKTTPPSVYPLAPGSAAQTNSMVTLGCLVKGYFPEPVTVTWNSGSLSSGVHTFPAVLQSDLYTLSSSVTVPSSTWPSETVTCNVAHPASSTKVDKKIVPRDCGCKPCICEPNEVEMVFIFPPKPKDVLTITLTPKVTCVVVDISKDDPEVQFSWFVDDVEVHTAQTQPREEQFNSTFRSVSELPIMHQDWLNGKEFKCRVNSAAFPAPIEKTISKTKGRPKAPQVYTIPPPKEQMAKDKVSLTCMITDFFPEDITVEWQWNGQPAENYKNTQPIMDTDGSYFVYSKLNVQKSNWEAGNTFTCSVLHEGLHNHHTEKSLSHSPGK
light: not shown
notes: mIgG1 with T230E/V231P/P232N/S238E/S239M (EU); copies: 2 + 2

More lines, now with the values behind:

B1: H237-MB373/MRAL-k0 (antibody, mouse IgG1, kappa)
heavy: QVQLQESGPGLVKPSETLSLTCAVSGHSISHDHAWSWVRQPPGEGLEWIGFISYSGITNYNPSLQGRVTISRDNSKNTLYLQMNSLRAEDTAVYYCARSLARTTAMDYWGEGTLVTVSSAKTTPPSVYPLAPGSAAQTNSMVTLGCLVKGYFPEPVTVTWNSGSLSSGVHTFPAVLQSDLYTLSSSVTVPSSTWPSETVTCNVAHPASSTKVDKKIVPRDCGCKPCICEAYEVEDVFIFPPKPKDVLTITLTPKVTCVVVDISKDDPEVQFSWFVDDVEVHTAQTQPREEQFNSTFRSVSELPIMHQDWLNGKEFKCRVNSAAFPAPIEKTISKTKGRPKAPQVYTIPPPKEQMAKDKVSLTCMITDFFPEDITVEWQWNGQPAENYKNTQPIMDTDGSYFVYSKLNVQKSNWEAGNTFTCSVLHEGLHNHHTEKSLSHSPGK
light: not shown
notes: mIgG1 with T230E/V231A/P232Y/S238E/S239D (EU); template T1; copies: 2 + 2
Kd [1]: 0.538 nM
relative mFcγRII-binding activity (mIgG1 = 1) [1]: 390
Kd [2]: 18.2 nM
relative mFcγRIII-binding activity (mIgG1 = 1) [2]: 15.5
relative mFcγRII-binding activity (mIgG1 = 1) [3]: 390
relative mFcγRIII-binding activity (mIgG1 = 1) [4]: 15.5
Kd [5]: 0.538 nM
Kd [6]: 18.2 nM
I/A (mFcγRII selectivity) [7]: 33.8
relative I/A (mFcγRII selectivity) (mIgG1 = 1) [7]: 25.2

B4: H237-MB475/MRAL-k0 (antibody, mouse IgG1, kappa)
heavy: QVQLQESGPGLVKPSETLSLTCAVSGHSISHDHAWSWVRQPPGEGLEWIGFISYSGITNYNPSLQGRVTISRDNSKNTLYLQMNSLRAEDTAVYYCARSLARTTAMDYWGEGTLVTVSSAKTTPPSVYPLAPGSAAQTNSMVTLGCLVKGYFPEPVTVTWNSGSLSSGVHTFPAVLQSDLYTLSSSVTVPSSTWPSETVTCNVAHPASSTKVDKKIVPRDCGCKPCICEPNEVEEVFIFPPKPKDVLTITLTPKVTCVVVDISKDDPEVQFSWFVDDVEVHTAQTQPREEQFNSTFRSVSELPIMHQDWLNGKEFKCRVNSAAFPAPIEKTISKTKGRPKAPQVYTIPPPKEQMAKDKVSLTCMITDFFPEDITVEWQWNGQPAENYKNTQPIMDTDGSYFVYSKLNVQKSNWEAGNTFTCSVLHEGLHNHHTEKSLSHSPGK
light: not shown
notes: copies: 2 + 2
relative mFcγRII-binding activity (mIgG1 = 1) [3]: 214
relative mFcγRIII-binding activity (mIgG1 = 1) [4]: 3.5
Kd [5]: 0.979 nM
Kd [6]: 81.4 nM

B5: H237-MB476/MRAL-k0 (antibody, mouse IgG1, kappa)
heavy: QVQLQESGPGLVKPSETLSLTCAVSGHSISHDHAWSWVRQPPGEGLEWIGFISYSGITNYNPSLQGRVTISRDNSKNTLYLQMNSLRAEDTAVYYCARSLARTTAMDYWGEGTLVTVSSAKTTPPSVYPLAPGSAAQTNSMVTLGCLVKGYFPEPVTVTWNSGSLSSGVHTFPAVLQSDLYTLSSSVTVPSSTWPSETVTCNVAHPASSTKVDKKIVPRDCGCKPCICQPNEVEEVFIFPPKPKDVLTITLTPKVTCVVVDISKDDPEVQFSWFVDDVEVHTAQTQPREEQFNSTFRSVSELPIMHQDWLNGKEFKCRVNSAAFPAPIEKTISKTKGRPKAPQVYTIPPPKEQMAKDKVSLTCMITDFFPEDITVEWQWNGQPAENYKNTQPIMDTDGSYFVYSKLNVQKSNWEAGNTFTCSVLHEGLHNHHTEKSLSHSPGK
light: not shown
notes: mIgG1 with T230Q/V231P/P232N/S238E/S239E (EU); copies: 2 + 2
relative mFcγRII-binding activity (mIgG1 = 1) [3]: 246
relative mFcγRIII-binding activity (mIgG1 = 1) [4]: 3.4
Kd [5]: 0.854 nM
Kd [6]: 84 nM

B6: H237-MB379/MRAL-k0 (antibody, mouse IgG1, kappa)
heavy: QVQLQESGPGLVKPSETLSLTCAVSGHSISHDHAWSWVRQPPGEGLEWIGFISYSGITNYNPSLQGRVTISRDNSKNTLYLQMNSLRAEDTAVYYCARSLARTTAMDYWGEGTLVTVSSAKTTPPSVYPLAPGSAAQTNSMVTLGCLVKGYFPEPVTVTWNSGSLSSGVHTFPAVLQSDLYTLSSSVTVPSSTWPSETVTCNVAHPASSTKVDKKIVPRDCGCKPCICEVYEVEDVFIFPPKPKDVLTITLTPKVTCVVVDISKDDPEVQFSWFVDDVEVHTAQTQPREEQFNSTFRSVSELPIMHQDWLNGKEFKCRVNSAAFPAPIEKTISKTKGRPKAPQVYTIPPPKEQMAKDKVSLTCMITDFFPEDITVEWQWNGQPAENYKNTQPIMDTDGSYFVYSKLNVQKSNWEAGNTFTCSVLHEGLHNHHTEKSLSHSPGK
light: not shown
notes: mIgG1 with T230E/P232Y/S238E/S239D (EU); template T5; copies: 2 + 2
Kd [1]: 0.768 nM
relative mFcγRII-binding activity (mIgG1 = 1) [1]: 273
Kd [2]: 23.2 nM
relative mFcγRIII-binding activity (mIgG1 = 1) [2]: 12.2
relative mFcγRII-binding activity (mIgG1 = 1) [3]: 273
relative mFcγRIII-binding activity (mIgG1 = 1) [4]: 12.2
Kd [5]: 0.768 nM
Kd [6]: 23.2 nM
I/A (mFcγRII selectivity) [7]: 30.2
relative I/A (mFcγRII selectivity) (mIgG1 = 1) [7]: 22.5

B8: H237-MB486/MRAL-k0 (antibody, mouse IgG1, kappa)
heavy: QVQLQESGPGLVKPSETLSLTCAVSGHSISHDHAWSWVRQPPGEGLEWIGFISYSGITNYNPSLQGRVTISRDNSKNTLYLQMNSLRAEDTAVYYCARSLARTTAMDYWGEGTLVTVSSAKTTPPSVYPLAPGSAAQTNSMVTLGCLVKGYFPEPVTVTWNSGSLSSGVHTFPAVLQSDLYTLSSSVTVPSSTWPSETVTCNVAHPASSTKVDKKIVPRDCGCKPCICEPAEVESVFIFPPKPKDVLTITLTPKVTCVVVDISKDDPEVQFSWFVDDVEVHTAQTQPREEQFNSTFRSVSELPIMHQDWLNGKEFKCRVNSAAFPAPIEKTISKTKGRPKAPQVYTIPPPKEQMAKDKVSLTCMITDFFPEDITVEWQWNGQPAENYKNTQPIMDTDGSYFVYSKLNVQKSNWEAGNTFTCSVLHEGLHNHHTEKSLSHSPGK
light: not shown
notes: copies: 2 + 2
relative mFcγRII-binding activity (mIgG1 = 1) [3]: 28.1
relative mFcγRIII-binding activity (mIgG1 = 1) [4]: 1.1
Kd [5]: 7.47 nM
Kd [6]: 258 nM

— US20150203577A1 (Chugai, published 2015)
